Consider 21 sequences from the DeepSol protein solubility set.

The data set in a line: soluble on expression in E. coli; label from the status in PepcDB or PDB records.
Turning to “MSLTEAPRVRLAEAEVFERPVEFRFPFRFGSARVATAPQAFVRVRVEDARGRSAIGWSAEMMMPKWFDKNPGLSPEDNVEQLRASLRLAIEGLTSLQAQTPFGLHAAAEGDHHRAAAGHGLPALVASYGLALLDRAILDALCRMTGASAAGAVRANLPGITGATAPDLEGFDLARFLSRLEPGPRLAVRHTIGLADALTAADLAPGQRLEDGLPQTLEEVIAAYGHRYFKIKVSGRPAEDTRRLLAIAAVLDQRVDAYRVTLDGNEQFENADAVADLLDRIAEEPRLEKLRASALFFEQPIVRAEALSRPVTEVAGRMPLEIDESDGDIGAFLRARALGYAGISSKSCKGFYRALVNRARVEMWNAEAGAARSFMSAEDLTTQSGLALQQDLVLAALVGAGHVERNGHHYVDGMAGAPAAEQAAYLAHHGDLYESGSGRARLAIRGGEITFSTVLRSVGLGSSVEPDWVAMVSEGHHHHHH”, the “soluble on expression in E. coli” value is reported as “not soluble”.

Turning to “MAILYSKMKRSVTIKLQPSKEQEKILFELADVGAKVWNRVNYLRRQEFFEGKLVDFNRTEKIVYEEFKQETGSATVQQIARKNAEAWRSFFTNCPSGSSQNHQTTLEHHHHHH”, the “soluble on expression in E. coli” value is reported as “not soluble”.

With “MKSFKEQYTLDERLAESREIIAKYPTRIPVIAEKYCKTDLPAIEKKKFLVPRDMSVGQFIYILSARLHLSPGKALFVFVNNTLPQTAALMDSVYESYKDDDGFVYMCYSSEKTFG”, the “soluble on expression in E. coli” value was “not soluble”.

Take “AGFQLNEFSSSGLGRAYSGEGAIADDAGNVSRAPALITMFDRPTFSAGAVYIDPDVNISGTSPSGRSLKADNIAPTAWVPNMHFVAPINDQFGWGASITSNYGLATEFNDTYAGGSVGGTTDLETMNLNLSGAYRLNNAWSFGLGFNAVYARAKIERFAGDLGQLVAGQIMQSPAGQTQQGQALAATANGIDSNTKTAHLNGNQWGFGWNAGILYELDKNNRYALTYRSEVKIDFKGNYSSDLNRAFNNYGLPIPTATGGATQSGYLTLNLPEMWEVSGYNRVDPQWAIHYSLAYTSWSQFQQLKATSTSGDTLFQKHEGFKDAYRIALGTTYYYDDNWTFRTGIAFDDSPVPAQNRSISIPDQDRFWLSAGTTYAFNKDASVDVGVSYMHGQSVKINEGPYQFESEGKAWLFGTNFNYAFHHHHHH”: the “soluble on expression in E. coli” value was “soluble”.

For the sequence “MNKEQECSKNIFDLPREIVIYHLKSAGIFVFEELDCDDIAQTPLLIMAPSVPLHVRLERTPTINLLKCHEKPLTEDQLFLLLSKCQQHTKKCMPSEEEIDQWVEVSSSKPREQSSNRGSKKDSWNHSIFMYNFFHRRGSNKRAAKYLEKIENGKSEKIRARVSQIRNLDLGYISLPMETINLEDAKQRDKLKEKALAETAESKKGKDILNLFTNVYY”, the “soluble on expression in E. coli” value is given as “not soluble”.

Consider “MEALGADVTQGLEKGSLITCADNTGARELKVISVHGYSGTKNRHPKAGLGDKITVSVTKGTPEMRRQVLEAVVVRQRKPIRRPDGTRVKFEDNAAVIVDENEDPRGTELKGPIAREVAQRFGSVASAATMIV”, for which the “soluble on expression in E. coli” value was “soluble”.

Regarding “MSLDIAYFTKTLEGLPLEKAAEITAGLGFDCADLLIRDGHAVSPDRPEGIANAVKFFAAAGVRTSMATIDSARPDDAASRLLSCCGEAGIGQIRLGFWRYDPSRRWRVQVDEARRDLDGFERLADRFGIKLTIQLHGGTLHSSGALAVQLLAGRDPIRLGAYPDPANQIIREGSEDWRLTLDILDPWFCCMGVKNSGWFPGAYGSHGQRAWHSDWYGLDEGMVPWNEIVPHLVATGFTGVLSMHSQYRVSREQALDKVRADLAHFRRLVAAAKEGHHHHHH”, the “soluble on expression in E. coli” value is listed as “not soluble”.

Turning to “MENNNSPTNAAEHNQKIDPRNYDDVLSVAASIREQVGEDVARADLGIICGSGLGPIGDTVQDATILPYSKIPGFPTTHVVGHKGNMIFGKLGGKKVVCLQGRFHPYEHNMDLALCTLPVRVMHQLGIKIMIVSNAAGGINAVLRHGDLMLIKDHIFLPALAGFSPLVGCNDPRFGARFVSVHDAYDKQLRQLAIDVGRRSDMTLYEGVYVMSGGPQYESPAEVSLFKTVGADALGMSTCHEVTVARQCGIKVLGFSLITNIANLDADASVEVSHEEVMDIAQQAGERASRFVSDIITEITL”, the “soluble on expression in E. coli” value is “not soluble”.

On to “MGSDKIHHHHHHMAEIDFIGRYHNATKRDYVQRVVEYDKAECAATAKQWGFDYWDGDRRHGFGGMRYDGRWLPLAEDLVRHYGLKAGDKVLDIGCGKAFLLYEMTRACPGLTVAGLDISEYGINNAKEEVRPFLTLGNATRLPWPDRHFDLVISINTFHNLQIHELDQAVREMQRVSTGRGYICVESYRDESEKANLLYWQLTCESFHRPEGWRWVYDQAGYTGDHGFIYFQ”, for which the “soluble on expression in E. coli” value was “not soluble”.

For “GPGSMSAEAVADLERRAAAAETAIGELSLRLQTMGSSVGAGIEPRLRELLKLMHEDRAEFEAVRAQRDELKEENERLKIQVAKHEYRIKHLLRTIEEISPEENS”, the “soluble on expression in E. coli” value is listed as “soluble”.

For “TQVFDLEGYGAISRAMGGTSSSYYTGNAALISNPATLSFAPDGNQFELGLDVVTTDIKVHDSHGAEAKSSTRSNNRGPYVGPQLSYVAQLDDWRFGAGLFVSSGLGTEYGSKSFLSQTENGIQTSFDNSSRLIVLRAPIGFSYQATSKLTFGASVDLVWTSLNLELLLPSSQVGALTAQGNLSGGLVPSLAGFVGTGGAAHFSLSRNSTAGGAVDAVGWGGRLGLTYKLTDNTVLGAMYNFKTSVGDLEGKATLSAISGDGAVLPLDGDIRVKNFEMPASLTLGLAHQFNERWVVAADIKRAYWGDVMDSMNVAFISQLGGIDVALPHRYQDITVASIGTAYKYNNDLTLRAGYSYAQQALDSELILPVIPAYLKRHVTFGGEYDFDKDSRINLAISFGLRERVQTPSYLAGTEMLRQSHSQINAVVSYSKNFHHHHHH”, the “soluble on expression in E. coli” value is given as “soluble”.

As for “MKSEANLRGMIDIEFYYHTCEAKKYFRNEVINYLVNLKSNVTIEMTRYWTEGADVVNHLFFCNIHGIGIPNLHGVLFQVKSYRYYSGFLLSTASQSFCG”, the “soluble on expression in E. coli” value is given as “not soluble”.

As for “MAPSTEDPDTVVEAQRRGSFSKKKNANGWNKVELVDQCAKQMGSEDKQPGGGDVKTENDPSKNGLGSATSNFIQSSVPPSHQTLSNPLQLSPPAEASVAQQSGASQVFPTFQAALGASSDELLQPNATSSSTSSSASTSSIVPVVKFTNQTAPNGSTVATSVGQNVRLTINGKRVGRPPGTFKRPQNNAANSSNSGNDSDMMGDHDLTCRWKSCNSSFQTLKALVDHVQESHVQSTEQEHHAWRCEWEGCDRNETFKALYMLIVHVRRHTGEKPNKCEYPGCGKEYSRLENLKTHRRTHTGEKPYKCEFADCEKAFSNASDRAKHQNRTHSNLKPYSCQIPQCTKSYTDPSSLRKHIKAVHGDDEYEKAKKSRPANYSNRRRPDHRLAPPTGAMSHPYLATPNSGASVVAHSSVHQQNFINMALAQHHHNAQRAQQLMAATGNVMPMMDPASAAAAAQAQAHHQAQAQMLQTHMMQQAQIQAAAQMQAQVQHQAAMQAHAMQQAQMVLQNNLLGAQSLLSPFSPLLPPSRAPNVMAMLQTPPTPTSVAPMFDIMTSRAPMAPVVSAPTAPAPLVPAPVPASPVFDELREQMREVEPLQQQQQQEPMDQDLQDIRVDGDSDDEDEEEPRTPSGALLLPRGGNNGDGGFGGSGSSRASSGSGTMELSAAPISQNGSRASGSGERGMRSFLIADILQLAADFQNERLLSDVLDLAIFDTRDVRSLHNIYQVYIRAHKAIPITRRPLDWNETHQLHNLYHDPRFNRAEHQDSPAIRDRDTRFWRTIAEANTMRQRQIEPVPLDDDDEGYFDEMVHRVQNGRLNEQFMEGFESDDDDGFEDEDDVPGLGIAVYRGRRRVRREALKQANLDIQEAETAGRNVGGFGDEEDRNNRGHDQDRSFLDHYYPPMVVVVETESPQIVRDQEMMRQFEEAKKNVETDEIKKRAEAMQFGTSSSHHHTKTLLIQRALFDKTSSVRRSLLQFITISVDQEELRQSCHATSAPQGAHVVHNVVDEFDSIMRAQEDSNNRILLSLDIPAPSAVTGVSGSITHADNSALQLQQEQPTSSFSSWFPEDDPIYALPPPPPPPAPPRRRRSADNKDDSENIPKKPRHQF”, the “soluble on expression in E. coli” value is given as “not soluble”.

Regarding “MSRTKDQAAAVLPTLLSALRLPSISRNWKHLTDTADRDGWPAANLLACLLEIEMAERASRRIQRHREQSGLPAGKTFATFDFDFPSGIRKPHLLSLATGEGWIESGGNILIFGQSGTGKTHVIAAIGHALIDAGRRVLFSTTTEMVQKLQAARRELSLPSMLDKLDKYDLIVLDSCAVRRDVESPSLGATFARRVARATQHKAAALEHHHHHH”, the “soluble on expression in E. coli” value is “not soluble”.

As for “YLLGHSLGELTCLSVNSLFSLKDLFDIANFRNKLMVTSTEKYLVAHNINRSNKFEMWALSSPRATDLPQEVQKLLNSPNLLSSSQNTISVANANSVKQCVVTGLVDDLESLRTELNLRFPRLRITELTNPYNIPFHNSTVLRPVQEPLYDYIWDILKKNGTHTLMELNHPIIANLDGNISYYIHHALDRFVKCSSRTVQFTMCYDTINSGTPVEIDKSICFGPGNVIYNLIRRNCPQVDTIEYTS”, the “soluble on expression in E. coli” value is reported as “soluble”.

Consider “MAHHHHHHMAKEVTTNHCNNSKWWKGRPYAKIPDGPAQRQAAVTISAILATAEATRLKHDNLKSTAAQAHSLAITAIKDAFYGKGETEAGDAFAYTKAEKCGRTTATGTAGAAIVEDLICLCTKGGGGQTTECYTSGPADVGKNKVGGVKVIVNDMIDHCPNISAELHLKPALITRRIAAFYAELGRQDGKKQYNKKSKNRGSGCNWMCSARS”, for which the “soluble on expression in E. coli” value is recorded as “not soluble”.

Take “MSLFTNLVKMGKKLKNLTKKYQLNKEKIEKFITVRKRLTFLGERPSVVEKPVVVKFGGTSVRYAFEEALELVANLNENTRTIVVVSALAGVTDCLLRLANGDMSALLEIEEIHEELSQELDVQLDHLMYQLHKTLNSKSSFPSKEAFVDEIASFGERFSAELFSEGLKILGINAKAVDSKDILFAKGDYGNAEVDFKKSVYGAGILYRMLRRGIVPVVTGYYGNLNGFRATFGRGGSDYSATSIARLVNAKATLIMSDVEGIYTADPKLVPSAKLIHYISYREAKIAAKLGMKALHHRAIDPVEGRIPVILGKTRDLKFGTLISHKSQGIPVVVHKLIEDHAEVSVVSTRRSFSLPYEVYEEGDFYFKIKIPKEQFLEVLKDIHRRVVENESLRPSYDSELWAWVEGHHHHHH”: the “soluble on expression in E. coli” value is given as “not soluble”.

For the sequence “MSEFKSKLESETLDFLCDAILTLENREECYRFFDDIFTINEIKTIEQRLQVAKMLKEKHTYSDISAETGASTATISRVNRCINYGSDGYNIVLRRLEK”, the “soluble on expression in E. coli” value was “not soluble”.

With “MGSDKIHHHHHHMNVPFPKRDHGGGLDAAAAEYGGDLEAWLDLSTGINPNAYPVGQLPQDIWGRLPDEGAMARLLDAARSFWSVPDGVEVIAAAGASPLIARMPDMTAFSGAYIPVPTYNEYAAAFAARGRLNDPLNPQNPVHVYVHPNNPDGRMWPGSVIGGRPLTIIDESFCDTVPDKTHMARAAEPGVIILKSFGKFWGLAGLRLGFAIAAPETFARSSSSASLQELMGPWSVSGPALEIGARALQDHAWAEATRVRLGHDAARLDDMLLSAGAEIVGGTTLFRTYAWEQGAEVWQKRLAEHRIWSRIFPYSTNWMRLGLPATDEDWARLDAAL”, the “soluble on expression in E. coli” value is reported as “not soluble”.

“MSRNHFNELSPCEALIMKLIWEAPQDIPVQELIDQLRDDYGKEYARTTVVTFVGKLKDKRFVDTYRKGKSAFIHPLRSEEEYRRQLLKEEADFWFNGKAVDMVASICESQKLEDDEIKRIKKILNGLNK”: the “soluble on expression in E. coli” value is on record as “not soluble”.

As to “MTYAVEFDNVSRLYGDVRAVDGVSIAIKDGEFFSMLGPSGSGKTTCLRLIAGFEQLSGGAISIFGKPASNLPPWERDVNTVFQDYALFPHMSILDNVAYGLMVKGVNKKQRHAMAQEALEKVALGFVHQRKPSQLSGGQRQRVAIARALVNEPRVLLLDEPLGALDLKLREQMQLELKKLQQSLGITFIFVTHDQGEALSMSDRVAVFNNGRIEQVDSPRDLYMRPRTPFVAGFVGTSNVFDGLMAEKLCGMTGSFALRPEHIRLNTPGELQANGTIQAVQYQGAATRFELKLNGGEKLLVSQANMTGEELPATLTPGQQVMVSWSRDVMVPLVEER”, the “soluble on expression in E. coli” value was “not soluble”.
